This note sets out measurements from paper PMC6098113, “A 2′FY-RNA Motif Defines an Aptamer for Ebolavirus Secreted Protein”.

Where two headings read alike, the source gives them in different places.

In data set [1] the target is T1, EBOV sGP (soluble glycoprotein) (Zaire ebolavirus (EBOV), UniProt P60170 33-324). Particulars: protein: recombinant; tags: 6xHis; chain copies: 2.
The target of data set [2] is T2, SUDV sGP (Sudan virus (SUDV), UniProt Q7T9E0 33-324).
T2 sequence: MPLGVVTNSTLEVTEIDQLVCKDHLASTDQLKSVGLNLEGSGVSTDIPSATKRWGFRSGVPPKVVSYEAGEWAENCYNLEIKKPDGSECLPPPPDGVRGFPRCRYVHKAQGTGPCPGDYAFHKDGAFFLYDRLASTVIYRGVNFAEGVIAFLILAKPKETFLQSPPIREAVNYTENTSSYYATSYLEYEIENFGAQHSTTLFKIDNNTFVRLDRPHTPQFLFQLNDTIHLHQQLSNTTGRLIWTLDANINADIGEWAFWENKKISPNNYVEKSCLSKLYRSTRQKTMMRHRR
Put plainly: filter binding; monomer basis. Particulars: protein: commercial; chain copies: 2; label: 32P; hairpin.

The target in data set [3] is T1, EBOV sGP (soluble glycoprotein). Put plainly: filter binding; monomer basis; Fig S8 legend uses 50 nM. Particulars: protein: recombinant; tags: 6xHis; chain copies: 2; label: 32P; hairpin.
Data set [4] deals with fibrinogen (UniProt P02671;P02675;P02679 20-866;31-491;27-453). Put plainly: filter binding; 250 nM to 4 uM fibrinogen; Buffer A: 137 mM NaCl, 2.7 mM KCl, 10 mM Na2HPO4, 2 mM KH2PO4, 5 mM MgCl2, pH 7.4, RT (23-24 C), 30 min. The note with it: protein: commercial; chain copies: 2;2;2; label: 32P; hairpin.
Data set [5] addresses T3, alpha2-macroglobulin (UniProt P01023 24-1474).
T3 sequence: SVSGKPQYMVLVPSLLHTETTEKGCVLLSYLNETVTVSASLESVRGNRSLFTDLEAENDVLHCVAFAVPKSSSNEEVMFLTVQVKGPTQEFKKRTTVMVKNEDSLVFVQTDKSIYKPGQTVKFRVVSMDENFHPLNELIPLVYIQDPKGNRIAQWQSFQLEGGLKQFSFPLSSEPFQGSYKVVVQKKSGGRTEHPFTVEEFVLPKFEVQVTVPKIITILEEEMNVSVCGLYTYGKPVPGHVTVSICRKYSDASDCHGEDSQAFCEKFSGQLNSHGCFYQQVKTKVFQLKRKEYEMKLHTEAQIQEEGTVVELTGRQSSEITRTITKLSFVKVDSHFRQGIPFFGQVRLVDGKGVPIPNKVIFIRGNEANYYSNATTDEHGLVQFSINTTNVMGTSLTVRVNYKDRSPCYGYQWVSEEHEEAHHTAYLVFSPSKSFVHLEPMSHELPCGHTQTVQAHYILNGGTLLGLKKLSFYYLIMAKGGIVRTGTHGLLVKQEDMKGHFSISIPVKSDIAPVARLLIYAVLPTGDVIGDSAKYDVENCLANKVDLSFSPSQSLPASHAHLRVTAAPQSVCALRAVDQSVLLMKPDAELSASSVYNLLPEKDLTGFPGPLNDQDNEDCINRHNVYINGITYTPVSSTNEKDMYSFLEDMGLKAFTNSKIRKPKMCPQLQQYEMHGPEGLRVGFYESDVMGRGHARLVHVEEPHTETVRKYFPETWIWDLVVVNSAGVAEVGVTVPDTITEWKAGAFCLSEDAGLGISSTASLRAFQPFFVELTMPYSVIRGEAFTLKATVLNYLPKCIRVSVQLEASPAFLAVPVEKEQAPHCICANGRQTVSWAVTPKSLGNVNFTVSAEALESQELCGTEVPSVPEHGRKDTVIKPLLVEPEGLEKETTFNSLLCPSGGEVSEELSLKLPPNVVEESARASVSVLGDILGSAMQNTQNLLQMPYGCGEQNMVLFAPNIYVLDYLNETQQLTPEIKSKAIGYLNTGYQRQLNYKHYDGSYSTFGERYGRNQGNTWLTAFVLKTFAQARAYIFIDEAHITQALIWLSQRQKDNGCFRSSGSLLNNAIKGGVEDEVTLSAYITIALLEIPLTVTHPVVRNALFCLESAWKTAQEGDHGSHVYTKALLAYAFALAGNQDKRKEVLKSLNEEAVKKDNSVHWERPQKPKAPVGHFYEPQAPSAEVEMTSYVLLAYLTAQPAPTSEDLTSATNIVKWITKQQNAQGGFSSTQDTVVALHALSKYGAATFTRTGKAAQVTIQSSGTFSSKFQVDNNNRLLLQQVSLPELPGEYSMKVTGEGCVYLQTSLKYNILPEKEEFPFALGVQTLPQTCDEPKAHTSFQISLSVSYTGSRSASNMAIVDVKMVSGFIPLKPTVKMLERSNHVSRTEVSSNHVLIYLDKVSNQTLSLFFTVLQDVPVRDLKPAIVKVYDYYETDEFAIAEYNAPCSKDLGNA
Put plainly: filter binding; 205 nM to 5 uM alpha2-macroglobulin; Buffer A: 137 mM NaCl, 2.7 mM KCl, 10 mM Na2HPO4, 2 mM KH2PO4, 5 mM MgCl2, pH 7.4, RT (23-24 C), 30 min. Particulars: protein: commercial; label: 32P; hairpin.

For data set [6], the target named is Human serum albumin (Homo sapiens (Human), UniProt P02768 25-609). Put plainly: filter; PBS + 5 mM MgCl2 pH 7.4. The note with it: label: 32P.
Data set [7] has as its target T1, EBOV sGP (soluble glycoprotein). Put plainly: filter binding. Particulars: protein: recombinant, tags: 6xHis, chain copies: 2.
The target is the same in data set [8]. Put plainly: filter binding; 50 and 500 nM sGP; better than 5183. The note with it: protein: recombinant; tags: 6xHis; chain copies: 2; label: 32P; central bulge of 5183 removed.
The target is the same in data set [9]. Put plainly: filter binding; 50 and 500 nM sGP. The note with it: protein: recombinant; tags: 6xHis; chain copies: 2; label: 32P; 3' stem loop of 5183.
Data set [10] shares this target. Put plainly: filter binding; monomer basis. Particulars: protein: recombinant; tags: 6xHis; chain copies: 2; label: 32P; hairpins (Mfold).
Data set [11] has the same target. Put plainly: filter binding; up to 800 nM sGP. The note with it: protein: recombinant; tags: 6xHis; chain copies: 2; label: 32P; hairpins (Mfold).
The target is the same in data set [12]. Put plainly: competition; 100-fold excess competes with 39SGP1A. Particulars: protein: recombinant; tags: 6xHis; chain copies: 2; label: 32P (direct); hairpins (Mfold).

T1 sequence (P60170 33-324): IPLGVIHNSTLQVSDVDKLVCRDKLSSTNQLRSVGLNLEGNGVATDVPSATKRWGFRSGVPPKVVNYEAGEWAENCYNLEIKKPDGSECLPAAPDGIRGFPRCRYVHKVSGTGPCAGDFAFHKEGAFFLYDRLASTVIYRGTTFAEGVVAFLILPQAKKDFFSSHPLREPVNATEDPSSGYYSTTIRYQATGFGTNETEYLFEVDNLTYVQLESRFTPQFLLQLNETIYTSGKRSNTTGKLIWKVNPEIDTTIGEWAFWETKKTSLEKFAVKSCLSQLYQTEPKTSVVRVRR
Chain of Human serum albumin (P02768 25-609): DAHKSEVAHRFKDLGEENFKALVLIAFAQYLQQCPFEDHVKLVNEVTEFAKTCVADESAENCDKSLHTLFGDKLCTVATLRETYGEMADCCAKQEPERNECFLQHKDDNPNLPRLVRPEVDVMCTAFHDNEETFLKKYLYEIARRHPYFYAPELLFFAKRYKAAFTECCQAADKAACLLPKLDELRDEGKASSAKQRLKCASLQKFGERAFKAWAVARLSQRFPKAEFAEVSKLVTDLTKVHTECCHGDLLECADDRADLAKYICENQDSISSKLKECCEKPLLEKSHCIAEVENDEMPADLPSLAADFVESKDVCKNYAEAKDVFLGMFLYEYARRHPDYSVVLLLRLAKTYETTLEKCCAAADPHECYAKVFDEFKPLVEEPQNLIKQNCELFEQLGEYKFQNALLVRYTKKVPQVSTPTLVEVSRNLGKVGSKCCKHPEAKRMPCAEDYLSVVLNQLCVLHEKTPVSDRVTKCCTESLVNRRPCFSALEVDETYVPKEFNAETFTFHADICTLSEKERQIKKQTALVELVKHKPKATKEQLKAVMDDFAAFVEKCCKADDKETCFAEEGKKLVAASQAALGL
Chain of fibrinogen (P02671 20-866, chain 1 of 3): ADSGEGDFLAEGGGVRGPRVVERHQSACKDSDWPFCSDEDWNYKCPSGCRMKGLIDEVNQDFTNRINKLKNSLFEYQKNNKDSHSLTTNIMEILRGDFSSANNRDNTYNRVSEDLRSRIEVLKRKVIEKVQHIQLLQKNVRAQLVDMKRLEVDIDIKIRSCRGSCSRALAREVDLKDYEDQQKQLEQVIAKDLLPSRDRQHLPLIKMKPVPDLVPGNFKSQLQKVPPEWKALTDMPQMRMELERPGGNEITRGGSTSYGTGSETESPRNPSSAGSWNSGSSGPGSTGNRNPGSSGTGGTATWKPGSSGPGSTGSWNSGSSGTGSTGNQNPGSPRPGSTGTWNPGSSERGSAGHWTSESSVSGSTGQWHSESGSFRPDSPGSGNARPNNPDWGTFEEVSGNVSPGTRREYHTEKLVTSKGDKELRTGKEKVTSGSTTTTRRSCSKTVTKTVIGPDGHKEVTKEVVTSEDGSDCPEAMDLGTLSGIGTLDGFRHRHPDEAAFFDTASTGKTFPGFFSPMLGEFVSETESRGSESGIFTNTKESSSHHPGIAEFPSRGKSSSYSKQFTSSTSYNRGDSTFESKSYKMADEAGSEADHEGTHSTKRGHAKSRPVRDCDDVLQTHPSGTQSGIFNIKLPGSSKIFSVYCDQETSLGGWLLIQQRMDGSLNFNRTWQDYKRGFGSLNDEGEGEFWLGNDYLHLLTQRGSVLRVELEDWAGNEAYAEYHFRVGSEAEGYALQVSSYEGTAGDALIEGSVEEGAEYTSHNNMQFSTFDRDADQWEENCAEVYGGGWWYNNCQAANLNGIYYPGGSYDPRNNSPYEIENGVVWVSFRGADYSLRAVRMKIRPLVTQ
Chain of fibrinogen (P02675 31-491, chain 2 of 3): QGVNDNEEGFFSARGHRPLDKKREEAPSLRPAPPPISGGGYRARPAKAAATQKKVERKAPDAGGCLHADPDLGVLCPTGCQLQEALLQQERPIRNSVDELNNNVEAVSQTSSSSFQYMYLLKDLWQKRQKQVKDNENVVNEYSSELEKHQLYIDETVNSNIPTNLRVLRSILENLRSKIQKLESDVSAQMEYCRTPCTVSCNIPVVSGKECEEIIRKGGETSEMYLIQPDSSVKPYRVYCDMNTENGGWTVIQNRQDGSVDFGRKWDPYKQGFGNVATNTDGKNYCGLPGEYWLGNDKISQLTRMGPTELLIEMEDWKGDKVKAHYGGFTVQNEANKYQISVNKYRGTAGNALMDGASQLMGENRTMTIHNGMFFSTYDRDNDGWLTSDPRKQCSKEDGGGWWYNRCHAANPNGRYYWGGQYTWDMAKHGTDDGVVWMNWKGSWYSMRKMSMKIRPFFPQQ
Chain of fibrinogen (P02679 27-453, chain 3 of 3): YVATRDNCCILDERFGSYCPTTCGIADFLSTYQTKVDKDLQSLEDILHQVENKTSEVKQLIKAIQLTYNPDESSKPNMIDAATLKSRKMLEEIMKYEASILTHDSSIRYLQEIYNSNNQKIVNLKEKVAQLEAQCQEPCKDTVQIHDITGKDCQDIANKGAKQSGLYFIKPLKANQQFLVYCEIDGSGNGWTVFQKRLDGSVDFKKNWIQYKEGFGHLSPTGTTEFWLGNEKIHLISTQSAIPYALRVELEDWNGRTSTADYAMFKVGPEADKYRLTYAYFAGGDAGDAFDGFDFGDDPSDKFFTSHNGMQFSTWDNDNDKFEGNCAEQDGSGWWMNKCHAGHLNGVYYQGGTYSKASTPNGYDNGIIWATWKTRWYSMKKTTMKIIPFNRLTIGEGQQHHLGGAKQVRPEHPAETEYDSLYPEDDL

B1: 4797 2'FY-RNA (XNA)
RNA: GGGAGACAAGAAUAAACGCUCAAAGCAACACAACGAGAUUAAACAAUCUAUUGUUAACAUUAAACAACUAGGCCGAUUCGACAGGAGGCUCACAACAGGC
modifications: 2'-F on all C and U
For the molecule B1, the Kd (in general, the concentration at which binding is half-saturated) in data set [1] was approximately 500 nM. Consider GGGCGCUCAAUUUUUUAUUGCAUUUUUCUUUGAGCGCCC (XNA, 2'-F on all C and U) [39SGP1A (5199) 2'FY-RNA], for which the figures for the equilibrium dissociation constant (Kd) in [2] and in data set [3] were 240 nM and 27 nM, respectively. In addition, the binding result in data set [4] and in data set [5] was “no binding” each time. On to GGGCGCUCAAUUUUUUAUUGCAUUUUUCUUUGAGCGCCC (ssRNA, 2'-F pyrimidines) [39SGP1A (5199)], for which the Kd in data set [6] is more than 68000 nM.

B2: 5182 2'FY-RNA (XNA)
RNA: GGGAGACAAGAAUAAACGCUCAAGUCUUUAUUUUUACACUUUUAUUUUACCUUGAGCUUCUUGACCAACAGUGCGCUUCGACAGGAGGCUCACAACAGGC
modifications: 2'-F on all C and U
For B2, the Kd in data set [7] (label: 32P) was less than 100 nM.

B3: 5179 2'FY-RNA (XNA)
RNA: GGGAGACAAGAAUAAACGCUCAAUCUUUUUAUUUUACUUUUUGUUGUAGAGCGCUUGUUUCUCUGAGUUGUAGCCAUUCGACAGGAGGCUCACAACAGGC
modifications: 2'-F on all C and U
For B3, in data set [7] (label: 32P (direct)), the Kd is less than 100 nM.

B4: 5192 2'FY-RNA (XNA)
RNA: GGGAGACAUAAACGCUCAAUUUUUUAUUGCAUUUUUCUUUGAGCGUCAUUGUGUUUCCUUGAGCACUUCGACAGGAGGCUCACAACAGGC
modifications: 2'-F on all C and U
As to B4, in data set [8], the binding result was “binds”.

B5: 5193 2'FY-RNA (XNA)
RNA: GGGAGACAAGAAUGAUACCCUGUUUCCUUGAGCUAUUCGACAGGAGGCUCACAACAGGC
modifications: 2'-F on all C and U
As to B5, in data set [9], the binding result is listed as “no binding”.

B6: 5183 2'FY-RNA (XNA)
RNA: GGGAGACAAGAAUAAACGCUCAAUUUUUUAUUGCAUUUUUCUUUGAGCGUCAUUGAUACCCUGUUUCCUUGAGCACUUCGACAGGAGGCUCACAACAGGC
modifications: 2'-F on all C and U; 2'-OH A and G
With B6, the Kd in [10] is 54 nM.

B7: 2'FC-5183 (XNA)
RNA: GGGAGACAAGAAUAAACGCUCAAUUUUUUAUUGCAUUUUUCUUUGAGCGUCAUUGAUACCCUGUUUCCUUGAGCACUUCGACAGGAGGCUCACAACAGGC
modifications: 2'-F on C only; U is 2'-OH
Regarding B7, the binding result in [11] was “no binding”.

B8: 5183 (ssRNA)
RNA: GGGAGACAAGAAUAAACGCUCAAUUUUUUAUUGCAUUUUUCUUUGAGCGUCAUUGAUACCCUGUUUCCUUGAGCACUUCGACAGGAGGCUCACAACAGGC
modifications: 2'-F pyrimidines
On to B8, for which the Kd in data set [6] worked out at 400 nM.

B9: 5183 2'OH RNA (structured_RNA)
RNA: GGGAGACAAGAAUAAACGCUCAAUUUUUUAUUGCAUUUUUCUUUGAGCGUCAUUGAUACCCUGUUUCCUUGAGCACUUCGACAGGAGGCUCACAACAGGC
modifications: none (2'-OH)
For the molecule B9, the binding result in [7] (label: 32P, hairpins (Mfold)) is listed as “no binding”.

B10: 4789 2'FY-RNA (XNA)
RNA: GGGAGACAAGAAUAAACGCUCAAACGUAAUGCAGUCUGUGAGCUUCAGCAAGUAAAAUUAGCGCUGACCGACCCUGUUCGACAGGAGGCUCACAACAGGC
modifications: 2'-F on all C and U
As to B10, the binding result in [12] is recorded as “binds”.

B11: 5189 2'FY-RNA (XNA)
RNA: GGGAGACAAGAAUAAACGCUCAAUUUUUUAUUGCAUUUUUCUUUGAGCGUCAUUGAUACCCUGUUUCCU
modifications: 2'-F on all C and U
With B11, the binding result in data set [7] (label: 32P) is reported as “binds”.
